Measured values: patent US20160326232A1 (Janssen / Centocor, published 2016)
Positions count from the first letter of the chain named.

T1: chimpanzee PSMA extracellular domain with 6His and Avi tag (PSMW8), biotinylated (chimpanzee, UniProt Q04609 44-750 (human entry), biotinylated ; Biotinylated, presumably on the Avi tag, which is not in the letters. Glycosylated (expressed in HEK cells). PSMA forms a homodimer; one subunit is given.)
T1 construct: Expressed in 293HEK-expi cells; buffer with ZnCl2 to stabilize PSMA dimerization; also called chimp PSMA; Pan troglodytes PSMA
T1 chain: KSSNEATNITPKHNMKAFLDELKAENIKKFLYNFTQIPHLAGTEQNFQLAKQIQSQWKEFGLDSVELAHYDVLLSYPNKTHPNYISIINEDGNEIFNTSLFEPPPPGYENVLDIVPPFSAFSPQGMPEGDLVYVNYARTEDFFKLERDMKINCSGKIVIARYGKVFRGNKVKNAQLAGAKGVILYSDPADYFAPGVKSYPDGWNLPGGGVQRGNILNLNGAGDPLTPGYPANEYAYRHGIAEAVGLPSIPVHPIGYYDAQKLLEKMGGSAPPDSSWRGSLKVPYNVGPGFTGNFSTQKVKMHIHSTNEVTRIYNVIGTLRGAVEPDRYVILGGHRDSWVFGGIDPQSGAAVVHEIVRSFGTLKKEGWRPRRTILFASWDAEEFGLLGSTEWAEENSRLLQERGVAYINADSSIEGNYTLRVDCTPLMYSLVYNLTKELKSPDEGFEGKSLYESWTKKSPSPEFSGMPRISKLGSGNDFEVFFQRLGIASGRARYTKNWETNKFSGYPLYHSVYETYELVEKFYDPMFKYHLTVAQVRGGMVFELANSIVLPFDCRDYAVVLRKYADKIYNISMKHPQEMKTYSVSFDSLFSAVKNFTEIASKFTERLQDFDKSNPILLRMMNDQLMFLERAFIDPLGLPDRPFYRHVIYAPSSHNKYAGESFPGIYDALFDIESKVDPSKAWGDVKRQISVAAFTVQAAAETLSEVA

T2: cynomolgus monkey PSMA extracellular domain with 6His and Avi tag (PSMW1), biotinylated (cynomolgus monkey, UniProt Q04609 44-750 (human entry), biotinylated ; Biotinylated, presumably on the Avi tag, which is not in the letters. Glycosylated (expressed in HEK cells). PSMA forms a homodimer; one subunit is given.)
T2 construct: Expressed in 293HEK-expi cells; buffer with ZnCl2 to stabilize PSMA dimerization; A cyno PSMA-Fc fusion was also used in some plate-based pannings; also called cyno PSMA; Macaca Fascicularis PSMA
T2 chain: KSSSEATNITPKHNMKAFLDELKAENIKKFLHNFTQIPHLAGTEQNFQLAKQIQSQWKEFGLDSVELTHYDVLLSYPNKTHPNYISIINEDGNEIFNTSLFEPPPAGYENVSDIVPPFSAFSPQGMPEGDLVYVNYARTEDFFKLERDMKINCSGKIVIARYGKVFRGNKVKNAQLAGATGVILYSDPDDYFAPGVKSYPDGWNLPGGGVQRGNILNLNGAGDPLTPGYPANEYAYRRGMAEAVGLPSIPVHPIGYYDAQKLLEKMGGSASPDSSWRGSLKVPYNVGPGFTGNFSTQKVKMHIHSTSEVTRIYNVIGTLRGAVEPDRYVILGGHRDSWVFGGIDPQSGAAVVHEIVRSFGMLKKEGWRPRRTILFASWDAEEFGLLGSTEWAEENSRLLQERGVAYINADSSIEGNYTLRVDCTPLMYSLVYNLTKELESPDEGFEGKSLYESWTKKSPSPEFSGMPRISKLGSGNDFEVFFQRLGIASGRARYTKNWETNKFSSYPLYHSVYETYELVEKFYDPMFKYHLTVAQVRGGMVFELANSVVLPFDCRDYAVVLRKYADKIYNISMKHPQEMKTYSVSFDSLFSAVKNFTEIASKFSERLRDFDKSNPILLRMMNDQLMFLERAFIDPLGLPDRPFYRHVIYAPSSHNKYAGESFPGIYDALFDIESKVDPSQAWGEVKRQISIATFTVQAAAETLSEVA

B1: P229CR5P819_H11 (designed binder)
chain: LPAPKNLVVSRVTEDSARLSWDIDEQRDWFDSFLIQYQESEKVGEAIVLTVPGSERSYDLTGLKPGTEYTVSIYGVYHVYRSSNPLSAIFTT
notes: FN3 domain (Centyrin), unconjugated, as screened from E. coli lysate; also called P229CR9P819-H11; not shown: C-terminal poly-histidine tag
B2: His-tagged P233FR9-H10 centyrin (designed binder)
chain: LPAPKNLVVSRVTEDSARLSWTAPDAAFDSFAIGYWEWDDDGEAIVLTVPGSERSYDLTGLKPGTEYPVYIAGVKGGQWSFPLSAIFTT
notes: FN3 domain (Centyrin), unconjugated; used in the screen and in the crystal structure with cynoPSMA; also called H10 FN3 domain; P233FR9_10; not shown: C-terminal His-tag
B3: P233FR9P1001_B5-5 (designed binder)
chain: B2 chain with A32T
notes: FN3 domain (Centyrin), unconjugated, as screened from E. coli lysate; not shown: C-terminal poly-histidine tag
B4: P233FR9P1001_D9 (designed binder)
chain: B2 chain with A32P, P68W
notes: as for B3
B5: P233FR9P1001_H3-1 (designed binder)
chain: B2 chain with A32P, P68H
notes: as for B3
B6: P234CR9_H01 (designed binder)
chain: LPAPKNLVVSRVTEDSARLSWEWWVIPGDFDSFLIQYQESEKVGEAIVLTVPGSERSYDLTGLKPGTEYTVSIYGVVNSGQWNDTSNPLSAIFTT
notes: as for B3
B7: P258AR6P1070_A05 (designed binder)
chain: LPAPKNLVVSRVTEDSARLSWTIDEQRDWFDSFLIQYQESEKVGEAIVLTVPGSERSYDLTGLKPGTEYTVSIYGVYHVYRSNPLSAIFTT
notes: as for B3
B8: P258AR6P1071_F04 (designed binder)
chain: B7 chain with T22V
notes: as for B3
B9: P258AR6P1070_F09 (designed binder)
chain: B7 chain with D31E
notes: as for B3
B10: P258AR6P1071_D02 (designed binder)
chain: B7 chain with T22A, D31E
notes: as for B3
B11: P258AR6P1071_G03 (designed binder)
chain: B7 chain with T22D
notes: as for B3
B12: P234CR9_A7 (designed binder)
chain: LPAPKNLVVSRVTEDSARLSWGEQFTIFDSFLIQYQESEKVGEAIVLTVPGSERSYDLTGLKPGTEYTVSIYGASGYEWFHAFGSSNPLSAIFTT
notes: FN3 domain (Centyrin), unconjugated, as screened from E. coli lysate; also called P234CR9_A07; not shown: C-terminal poly-histidine tag

Biological target: T1, chimpanzee PSMA extracellular domain …
Test: hit of CIS-display panning and ELISA screen on biotinylated PSMA (same antigen as in panning; signal at least 10-fold above background); column Antigen species
Experimental: (§1) Neutravidin-coated plates were blocked for 1 h in Starting Block T20 (Pierce) and then coated with biotinylated PSMA (using same antigen as in panning) or negative control for 1 h. Plates were rinsed with TBST and diluted lysate was applied to plates for 1 h. Following additional rinses, wells were treated with HRP-conjugated anti-Centyrin antibody (PAB25) for 1 h and then assayed with POD (Roche). Centyrins with signals at least 10-fold above background were selected for further analysis.

Binding result, binds:
B1
B2
B3
B4
B5

Biological target: T2, cynomolgus monkey PSMA extracellular …
Test: as above
Experimental: as §1

Binding result, binds:
B6
B7
B8
B9
B10
B11
B12
